The values that follow come from the supplement of paper PMC10567573.

The labels stand for the following.
B1: KLHL14 (parent)
chain: WLYCYDPVMDVWARKQDMNTKRAI
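Further: lentivirally expressed fusions sorted by FACS into six bins by GFP to DsRed ratio, PSI derived from sequencing read proportions per bin multiplied by bin number.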

Variants of B1 are the subject of the series. Nature of the series: protein stability index of a GFP-peptide fusion (GPS, HEK-293T) (PSI 1-6); higher = more stable. The note with it: c terminus: a fixed tail appended.
On to WLYCYDPVMDVWARKQDMNTMRAI [K21M], for which the protein stability index came to 2.08.

Take WLYCYDPVMDVWARKQDMNTSRAI [K21S]: the protein stability index came to 1.91.

Consider WLYCYDPVMDVWARKQDMNTPRAI [K21P], for which the protein stability index worked out at 1.58.

Turning to WLYCYDPVMDVWARKQDMNTNRAI [K21N], the protein stability index amounted to 1.81.

Consider WLYCYDPVMDVWARKQDMNTFRAI [K21F], for which the protein stability index was determined as 1.86.

WLYCYDPVMDVWARKQDMNTGRAI [K21G]: the protein stability index was 2.61.

Turning to WLYCYDPVMDVWARKQDMNTHRAI [K21H], the protein stability index worked out at 1.94.

On to WLYCYDPVMDVWARKQDMNTRRAI [K21R], for which the protein stability index worked out at 1.83.

On to WLYCYDPVMDVWARKQDMNTARAI [K21A], for which the protein stability index worked out at 1.78.

Take WLYCYDPVMDVWARKQDMNTYRAI [K21Y]: the protein stability index was determined as 1.92.

Turning to WLYCYDPVMDVWARKQDMNTIRAI [K21I], the protein stability index is 1.71.

For WLYCYDPVMDVWARKQDMNTQRAI [K21Q], the protein stability index came to 1.86.

With WLYCYDPVMDVWARKQDMNTDRAI [K21D], the protein stability index stood at 2.34.

Consider WLYCYDPVMDVWARKQDMNTVRAI [K21V], for which the protein stability index was 1.91.

Consider WLYCYDPVMDVWARKQDMNTCRAI [K21C], for which the protein stability index was 2.23.

For the variant WLYCYDPVMDVWARKQDMNTTRAI [K21T], the protein stability index stood at 1.83.

For WLYCYDPVMDVWARKQDMNTWRAI [K21W], the protein stability index came out at 2.2.

Consider WLYCYDPVMDVWARKQDMNTLRAI [K21L], for which the protein stability index stood at 1.88.

As for WLYCYDPVMDVWARKQDMNKKRAI [T20K], the protein stability index worked out at 2.15.

Consider WLYCYDPVMDVWARKQDMNSKRAI [T20S], for which the protein stability index is 1.99.

For the variant WLYCYDPVMDVWARKQDMNWKRAI [T20W], the protein stability index is 2.34.

For WLYCYDPVMDVWARKQDMNIKRAI [T20I], the protein stability index turned out to be 1.91.

As to WLYCYDPVMDVWARKQDMNVKRAI [T20V], the protein stability index came to 2.11.

In the case of WLYCYDPVMDVWARKQDMNGKRAI [T20G], the protein stability index was determined as 2.57.

Take WLYCYDPVMDVWARKQDMNRKRAI [T20R]: the protein stability index was determined as 1.77.

Take WLYCYDPVMDVWARKQDMNLKRAI [T20L]: the protein stability index was 2.28.

As to WLYCYDPVMDVWARKQDMNDKRAI [T20D], the protein stability index was 2.15.

For WLYCYDPVMDVWARKQDMNFKRAI [T20F], the protein stability index stood at 1.44.

As to WLYCYDPVMDVWARKQDMNCKRAI [T20C], the protein stability index amounted to 1.62.

For the variant WLYCYDPVMDVWARKQDMNEKRAI [T20E], the protein stability index was found to be 1.95.

For WLYCYDPVMDVWARKQDMNMKRAI [T20M], the protein stability index is 1.7.

Take WLYCYDPVMDVWARKQDMNPKRAI [T20P]: the protein stability index is 2.

On to WLYCYDPVMDVWARKQDMNNKRAI [T20N], for which the protein stability index is 1.85.

On to WLYCYDPVMDVWARKQDMNQKRAI [T20Q], for which the protein stability index was found to be 1.99.

On to WLYCYDPVMDVWARKQDMNHKRAI [T20H], for which the protein stability index was found to be 1.88.

Consider WLYCYDPVMDVWARKQDMNYKRAI [T20Y], for which the protein stability index turned out to be 2.02.

As to WLYCYDPVMDVWARKQDMNAKRAI [T20A], the protein stability index was determined as 2.07.

Consider WLYCYDPVMDVWARKQDMNTKRAG [I24G], for which the protein stability index is 2.13.

WLYCYDPVMDVWARKQDMNTKRAS [I24S]: the protein stability index was found to be 2.86.

With WLYCYDPVMDVWARKQDMNTKRAQ [I24Q], the protein stability index worked out at 2.79.

WLYCYDPVMDVWARKQDMNTKRAP [I24P]: the protein stability index was found to be 2.68.

On to WLYCYDPVMDVWARKQDMNTKRAC [I24C], for which the protein stability index was determined as 1.99.

As for WLYCYDPVMDVWARKQDMNTKRAT [I24T], the protein stability index is 1.87.

On to WLYCYDPVMDVWARKQDMNTKRAK [I24K], for which the protein stability index came out at 2.44.

For the variant WLYCYDPVMDVWARKQDMNTKRAN [I24N], the protein stability index was 2.29.

As for WLYCYDPVMDVWARKQDMNTKRAM [I24M], the protein stability index was 2.16.

With WLYCYDPVMDVWARKQDMNTKRAW [I24W], the protein stability index came out at 2.39.

Take WLYCYDPVMDVWARKQDMNTKRAR [I24R]: the protein stability index was found to be 1.4.

In the case of WLYCYDPVMDVWARKQDMNTKRAF [I24F], the protein stability index amounted to 1.42.

In the case of WLYCYDPVMDVWARKQDMNTKRAY [I24Y], the protein stability index was 2.45.

Take WLYCYDPVMDVWARKQDMNTKRAD [I24D]: the protein stability index was 2.92.

With WLYCYDPVMDVWARKQDMNTKRAH [I24H], the protein stability index amounted to 2.63.

For the variant WLYCYDPVMDVWARKQDMNTKRAV [I24V], the protein stability index was 2.53.

With WLYCYDPVMDVWARKQDMNTKRAL [I24L], the protein stability index was found to be 2.25.

As for WLYCYDPVMDVWARKQDMNTKRAE [I24E], the protein stability index was found to be 2.31.

For the variant WLYCYDPVMDVWARKQDMNTKRAA [I24A], the protein stability index was determined as 2.36.

For WLYCYDPVMDVWARKQDMHTKRAI [N19H], the protein stability index came to 1.57.

Regarding WLYCYDPVMDVWARKQDMWTKRAI [N19W], the protein stability index is 2.53.

For WLYCYDPVMDVWARKQDMVTKRAI [N19V], the protein stability index was found to be 2.55.

WLYCYDPVMDVWARKQDMSTKRAI [N19S]: the protein stability index was 1.83.

Turning to WLYCYDPVMDVWARKQDMATKRAI [N19A], the protein stability index was 1.59.

With WLYCYDPVMDVWARKQDMRTKRAI [N19R], the protein stability index stood at 1.83.

On to WLYCYDPVMDVWARKQDMPTKRAI [N19P], for which the protein stability index was 1.93.

WLYCYDPVMDVWARKQDMCTKRAI [N19C]: the protein stability index is 1.76.

Turning to WLYCYDPVMDVWARKQDMMTKRAI [N19M], the protein stability index stood at 2.13.

For WLYCYDPVMDVWARKQDMETKRAI [N19E], the protein stability index turned out to be 1.81.

Consider WLYCYDPVMDVWARKQDMTTKRAI [N19T], for which the protein stability index turned out to be 1.88.

With WLYCYDPVMDVWARKQDMFTKRAI [N19F], the protein stability index worked out at 1.52.

WLYCYDPVMDVWARKQDMKTKRAI [N19K]: the protein stability index worked out at 2.02.

As to WLYCYDPVMDVWARKQDMITKRAI [N19I], the protein stability index turned out to be 1.57.

As for WLYCYDPVMDVWARKQDMYTKRAI [N19Y], the protein stability index was determined as 1.72.

In the case of WLYCYDPVMDVWARKQDMGTKRAI [N19G], the protein stability index came out at 2.

WLYCYDPVMDVWARKQDMDTKRAI [N19D]: the protein stability index was found to be 2.27.

WLYCYDPVMDVWARKQDMLTKRAI [N19L]: the protein stability index was 2.05.

WLYCYDPVMDVWARKQDMQTKRAI [N19Q]: the protein stability index worked out at 2.2.

Consider WLYCYDPVMDVWARKQDMNTKDAI [R22D], for which the protein stability index was found to be 2.13.

Take WLYCYDPVMDVWARKQDMNTKKAI [R22K]: the protein stability index worked out at 2.

With WLYCYDPVMDVWARKQDMNTKQAI [R22Q], the protein stability index amounted to 1.77.

Regarding WLYCYDPVMDVWARKQDMNTKCAI [R22C], the protein stability index worked out at 2.15.

Regarding WLYCYDPVMDVWARKQDMNTKLAI [R22L], the protein stability index stood at 1.83.

On to WLYCYDPVMDVWARKQDMNTKNAI [R22N], for which the protein stability index came out at 1.82.

On to WLYCYDPVMDVWARKQDMNTKPAI [R22P], for which the protein stability index was 1.8.

Take WLYCYDPVMDVWARKQDMNTKVAI [R22V]: the protein stability index was found to be 1.72.

For the variant WLYCYDPVMDVWARKQDMNTKIAI [R22I], the protein stability index is 1.74.

Take WLYCYDPVMDVWARKQDMNTKSAI [R22S]: the protein stability index came to 2.12.

Consider WLYCYDPVMDVWARKQDMNTKFAI [R22F], for which the protein stability index is 1.51.

WLYCYDPVMDVWARKQDMNTKYAI [R22Y]: the protein stability index was 2.01.

For WLYCYDPVMDVWARKQDMNTKWAI [R22W], the protein stability index is 1.69.

Take WLYCYDPVMDVWARKQDMNTKHAI [R22H]: the protein stability index was 2.01.

With WLYCYDPVMDVWARKQDMNTKMAI [R22M], the protein stability index stood at 1.88.

For WLYCYDPVMDVWARKQDMNTKAAI [R22A], the protein stability index stood at 2.32.

As to WLYCYDPVMDVWARKQDMNTKTAI [R22T], the protein stability index is 1.91.

Regarding WLYCYDPVMDVWARKQDMNTKGAI [R22G], the protein stability index is 1.69.

For the variant WLYCYDPVMDVWARKQDMNTKEAI [R22E], the protein stability index was found to be 2.19.
